Experimental data from patent publication US6127169.

Biological target: specific cell surface receptors on mouse embryo fibroblasts

growth inhibition of synchronous mouse embryo fibroblasts (cell count): 100%
B1: mouse β-galactoside binding protein (GBP), natural or recombinant, complexed or non-complexed form not told (ligand)
chain: ACGLVASNLNLKPGECLKVRGEVASDAKSFVLNLGKDSNNLCLHFNPRFNAHGDANTIVCNTKEDGTWGTEHREPAFPFQPGSITEVCITFDQADLTIKLPDGHEFKFPNRLNMEAINYMAADGDFKIKCVAFE
modifications: 125I label in the receptor binding assays
